According to US20160031959A1:

Target: recombinant BAX protein (UniProt Q07812)
Assay: fluorescence polarization, FITC-labeled peptide incubated with recombinant BAX at various concentrations, 60 min, room temperature

Sequence of recombinant BAX protein (Q07812 whole entry, form in doubt): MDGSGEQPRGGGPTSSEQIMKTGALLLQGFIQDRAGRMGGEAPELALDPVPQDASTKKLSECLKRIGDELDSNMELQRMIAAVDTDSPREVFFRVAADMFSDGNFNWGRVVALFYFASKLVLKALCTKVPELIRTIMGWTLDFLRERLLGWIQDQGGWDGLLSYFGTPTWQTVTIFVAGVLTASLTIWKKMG

EC50: 4.6 nM
Substance: BCL-2 BH4 SAHBA (peptide)
